The record followed here is the RNAGym collection of RNA variant scans (doi:10.7554/elife.80360).

The chains are these.
B1: Twister Ribozyme (parent)
chain: AACACUGCCAAUGCCGGUCCCAAGCCCGGAUAAAAGUGGAGGGGGCGG

Variants of B1 are the subject of the series. Description: self-cleavage, relative activity (ratio to wild type); higher = more cleavage; co-transcriptional.
Regarding A32U G43A, the self-cleavage was found to be 0.239.
The result for C15A A32U reads 0.667; that for C26A G39C, 0.0938; that for G17U G29C, 0.0894.
The result for A1C G17U reads 0.166.
The result for A32C G48U reads 0.893; that for C9A C46A, 0.426; that for A22C G44A, 0.914.
For the variant A11U G29A, the self-cleavage amounted to 1.02.
Then G13C G16U, with 0.132.
Then A35U G47U, with 0.893.
Then A35U G47A, with 0.899; and U12C A32U, with 0.835.
Turning to U18A G42A, the self-cleavage was 0.104.
Then A4G G38U, with 0.947; and A34U, with 0.915; and U6A C8U, with 0.175.
Then C5U A10G, with 0.869; and G13C A30C, with 0.518; and G17U C46G, with 0.301.
Take C9G C46G: the self-cleavage came to 0.576.
The result for U12C G43U reads 0.485; that for C15U G29A, 0.927; that for C9A G17C, 0.0631.
With G24U G48A, the self-cleavage came out at 0.0944.
Then G7C G42A, with 0.062.
Then U6C A10C, with 0.772; and C25A A32U, with 0.078; and C27G G38U, with 0.093.
The result for G17C G29U reads 0.0973.
Regarding G24U G42A, the self-cleavage is 0.0906.
On to A2U C19G, for which the self-cleavage stood at 0.0882.
Then U18A G45A, with 0.32; and G16C A34C, with 0.0817.
The result for G16C A34G reads 0.298.
Turning to C3G A30U, the self-cleavage worked out at 0.427.
The result for A2C G39A reads 0.0656.
The result for C14U G39A reads 0.509; that for G29A U37C, 0.444.
Then C14A C25A, with 0.242; and U6A C15U, with 0.649; and C14U U31C, with 1.22.
For the variant A2G C20G, the self-cleavage worked out at 0.0997.
Then C3A A40G, with 0.0819.
Then G7U C19G, with 0.0806.
Then A30G U31C, with 0.988; and U31A G36C, with 0.388.
For the variant C15G A30G, the self-cleavage stood at 0.123.
The result for A1U G7U reads 0.059.
The result for C19A C27U reads 0.0993; that for C3G G42C, 0.128.
The result for C3G C26U reads 0.137; that for C15A A40U, 0.116.
C5G U31A: the self-cleavage was 0.634.
The result for C5G U31G reads 0.757.
The result for G13A G41C reads 0.17.
Then G13A G41A, with 0.157.
As for G29A G36U, the self-cleavage is 0.265.
The result for G13C G38A reads 0.219; that for C19G U37G, 0.0722.
As to A30G G39U, the self-cleavage amounted to 0.191.
The result for A2C A40U reads 0.0387.
The result for A4U C5U reads 0.136; that for U37C G45U, 0.515; that for C26U A33C, 0.203.
As to G13A C14G, the self-cleavage amounted to 0.551.
Then C5G G13A, with 0.115.
Turning to G16U C25A, the self-cleavage is 0.206.
Consider U18G C27U, for which the self-cleavage stood at 0.0822.
With C8U U31A, the self-cleavage was 0.592.
Then C8G G24C, with 0.993; and G13A C20U, with 0.262.
Regarding C15U G24A, the self-cleavage was found to be 0.1.
With C21A G43A, the self-cleavage amounted to 0.0637.
Regarding C9A A22G, the self-cleavage came to 0.101.
Take A1U C3G: the self-cleavage came out at 0.0927.
Then G17A A22G, with 0.136; and A40G G44A, with 0.157.
The result for C14U C46U reads 1.01; that for C14U C46G, 1.04; that for C15G C21U, 0.0717.
Consider A4C U18A, for which the self-cleavage turned out to be 0.0406.
The result for C8G A34U reads 0.553.
The result for A10G G24C reads 0.131; that for C3U A10C, 0.61.
The result for A1C A32U reads 0.228; that for C3U G38U, 0.409; that for C20A A22C, 0.126.
U18C G44C: the self-cleavage was 0.49.
Then A35U G45A, with 1.02; and C27G G41C, with 0.0915.
The result for U31G G42U reads 0.447; that for C20U A34G, 0.373.
Then C14U A40G, with 0.21.
Regarding G17U A34G, the self-cleavage was determined as 0.182.
Then A1C A35C, with 0.161; and G13U A22C, with 0.708; and A40G G43C, with 0.135.
The result for C3U A22U reads 0.255; that for A1G C26G, 0.334.
As for A33C A35U, the self-cleavage came out at 0.936.
For G41A G42U, the self-cleavage was found to be 0.156.
Then C5U U18C, with 0.24.
The result for U6C G43C reads 0.128; that for C21A C25A, 0.101; that for U31G U37G, 0.734.
Then A34C A35U, with 0.811; and C27G A34G, with 0.124.
Turning to C21A G38A, the self-cleavage amounted to 0.109.
The result for C15A C25U reads 0.436.
As for C3A A23U, the self-cleavage is 0.133.
Then A2C C15G, with 0.0398.
In the case of A33G G41A, the self-cleavage came out at 0.453.
Take G24U G41A: the self-cleavage is 0.0908.
The result for C27U A30U reads 0.758.
On to G36C G41U, for which the self-cleavage came to 0.0915.
Then A33U A34U, with 0.847; and A2G G24U, with 0.0773; and C3U A40C, with 0.0947.
The result for C25A C26G reads 0.0788.
The result for A1U C46G reads 0.0557; that for C21U U31G, 0.115.
Turning to C21G A23U, the self-cleavage was determined as 0.032.
The result for C3U C20G reads 0.0703.
The result for A23U G48U reads 0.439.
The result for A23U G48C reads 0.48; that for A22U A30U, 0.999.
In the case of C27G A35U, the self-cleavage worked out at 0.0981.
As to U12C A33G, the self-cleavage turned out to be 1.
Then U12C A33U, with 1.01; and U18C G24A, with 0.0865.
The result for C9G G39C reads 0.132.
Then A11C G39A, with 0.601.
As to C15U G41C, the self-cleavage turned out to be 0.209.
Consider C9G G42A, for which the self-cleavage was found to be 0.12.
The result for C3U G29C reads 0.277; that for C9U G45U, 0.328; that for C5G C26U, 0.104.
Then C19U A40U, with 0.133; and C27G G45U, with 0.0905.
Then A1G A22G, with 0.165; and C3U A4G, with 0.183.
As for C9A A30U, the self-cleavage is 0.725.
Then C9A A30C, with 0.608; and C19U A23G, with 0.219; and C15G G29U, with 0.11.
In the case of C14U G16U, the self-cleavage amounted to 0.778.
Then C14A A23G, with 0.525.
For C27G G29A, the self-cleavage came to 0.0827.
The result for A30C G45C reads 0.266.
Then G24C C27A, with 0.121.
Then A11C A30C, with 0.719.
As to A2G G38U, the self-cleavage is 0.125.
Then U18C G42A, with 0.0575; and C3G C20U, with 0.295; and A4U G47A, with 0.0604.
The result for A4G A23U reads 0.358; that for C25A C46A, 0.07; that for C9G A23G, 0.0809.
The result for A4U C15A reads 0.0639.
Take U6G C20A: the self-cleavage is 0.0634.
Take U6G C20G: the self-cleavage stood at 0.0753.
Then A2G C9G, with 0.0579; and A33C A34U, with 0.969.
The result for A11C A34G reads 0.713; that for C9U G29U, 0.606; that for C8U G28C, 0.469.
